Experimental data reported in patent US20250388666A1 (BRIGHAM AND WOMEN S HOSPITAL, published 2025).
Positions count from the first letter of the chain named. Numbers in names are those of the source. One block for each binder: values may come before it.

How the values were obtained:
[1] = target: T1, CEACAM1-HIS (Sino Biologics Inc.) (Homo sapiens (Human), UniProt P13688 35-428); assay: SPR multi-cycle
T1 construct: bought; not shown: His tag
T1 sequence: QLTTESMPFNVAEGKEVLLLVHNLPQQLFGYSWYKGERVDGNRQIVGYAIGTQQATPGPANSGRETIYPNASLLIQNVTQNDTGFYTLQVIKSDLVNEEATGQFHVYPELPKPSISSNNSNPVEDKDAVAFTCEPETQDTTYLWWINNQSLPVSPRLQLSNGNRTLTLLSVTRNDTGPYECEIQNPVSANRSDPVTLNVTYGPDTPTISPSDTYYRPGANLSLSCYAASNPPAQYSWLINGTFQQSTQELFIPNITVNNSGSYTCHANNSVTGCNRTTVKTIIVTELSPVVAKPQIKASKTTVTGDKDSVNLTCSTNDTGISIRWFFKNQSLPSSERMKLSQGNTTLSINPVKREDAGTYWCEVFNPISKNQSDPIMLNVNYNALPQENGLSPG

[2] = target: T1, CEACAM1-HIS (Sino Biologics Inc.); assay: SPR multi-cycle, IgG on Protein A
Experimental: (§1) As an alternative approach to assess the binding of the antibody combinations and the control antibodies to CEACAM1, a kinetic analysis was performed on a Biacore T200 running Biacore T200 Evaluation Software V2.0.1. All experiments were run at 25° C. with HBS-P+ running buffer (pH 7.4).
For multi-cycle kinetic analysis purified antibody was immobilized at a protein concentration of 1 μg/mL in HBS-P+. At the start of each cycle, antibody was captured on Protein A to give an RU of ˜100 and the surface allowed to stabilize. Kinetic data was obtained at a flow rate of 35 μl/min to minimize any potential mass transfer effects. Multiple repeats of the blank (no CEACAM1) and a repeat of a single concentration of the analyte were programmed into the kinetic run in order to check the stability of both the surface and analyte over the kinetic cycles. For kinetic analysis, a 2-fold dilution series was selected from 100 to 1.5625 nM CEACAM1. The association phase of CEACAM1 was monitored initially for 180 seconds. In the subsequent experiment a longer association time (275 seconds) was used in order to better reach steady state. The dissociation phase was measured for 250 seconds. Regeneration of the Protein A surface was conducted using 2 injections of 10 mM glycine-HCL pH 1.5 at the end of each cycle.
The signal from the reference channel Fc1 was subtracted from that of Fc2, Fc3 and Fc4 to correct for differences in non-specific binding to a reference surface, a global Rmax parameter was used in the 1-to-1 binding model. The relative KD compared to the chimeric parental antibody was calculated by dividing the KD of the Composite Human Antibody™ variants by that of the chimeric parental antibody on the same chip.

[3] = target: T1, CEACAM1-HIS (Sino Biologics Inc.); assay: SPR single-cycle, IgG on Protein A
Experimental: as §1
In order to assess the binding of all Composite Human Antibody™ variants, single cycle kinetic analysis was performed on the supernatants of all the transiently transfected HEK EBNA cells. Purified chimeric antibody and purified chimeric antibody spiked into HEK EBNA media were used as positive controls. Supernatants were diluted in HBS-P+ to a concentration of 1 μg/mL (as determined by an IgG quantitation ELISA). At the start of each cycle, antibodies were loaded onto Fc2, Fc3 and Fc4 of a Protein A chip and captured at a flow rate of 8 μL/min to give an RU of ˜100. The surface was then allowed to stabilize. Single cycle kinetic data was obtained at a flow rate of […] to minimize any potential mass transfer effects. Multiple repeats of the chimeric antibody were performed to check the stability of the surface and analyte over the kinetic cycles. The signal from the reference channel Fc1 (no antibody) was subtracted from that of Fc2, Fc3 and Fc4 to correct for differences in non-specific binding to a reference surface. A 5 point 2-fold dilution range from 3.125 to 50 nM CEACAM1 without regeneration between each concentration was used. The association phase for the 5 injections of increasing concentrations of CEACAM1 was monitored for 150 seconds and a single dissociation phase was measured for 150 seconds following the last injection of CEACAM1. Regeneration of the Protein A was conducted using 2 injections of 10 mM glycine-HCL pH 1.5 followed by a stabilization period of 500 seconds.
In the raw sensorgrams for the single cycle kinetics, the signal from each antibody blank run (no CEACAM1) was subtracted to correct for differences in surface stability.

[4] = target: T2, human GST-CEACAM1 (human, UniProt P13688 35-141, limits assumed); assay: competition ELISA vs murine parent antibody
T2 construct: printed both as GST-CEACAM1 and CEACAM1-GST; also called human CEACAM1-GST protein; hCEACAM1-GST; not shown: GST tag
T2 sequence: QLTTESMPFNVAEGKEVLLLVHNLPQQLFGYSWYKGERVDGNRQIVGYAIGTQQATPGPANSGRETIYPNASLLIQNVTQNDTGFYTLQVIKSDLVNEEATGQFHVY
Experimental: The binding of the purified chimeric antibody to human CEACAM1 was assessed in a competition ELISA assay. Nunc Immuno MaxiSorp 96 well flat bottom microtitre plates were pre-coated with 1 μg/ml human GST-CEACAM1 in 1×PBS, overnight at 4° C. The following day the plates were blocked for 1 hour at room temperature with 2% BSA/PBS before washing 2× with PBS/0.05% Tween 20 pH 7.4.
The binding of the purified antibodies to human CEACAM1 were assessed in a competition ELISA assay as described above. The ability of each variant to compete against the murine parental antibody for binding to the GST-CEACAM1 was compared to that of the chimeric antibody (VH0/Vκ0), which was included on each plate.

[5] = target: T3, CEACAM1 (Sino Biological) (human, UniProt P13688 35-428, limits assumed); assay: SPR single-cycle
T3 construct: may be the same as CEACAM1-HIS; also called hCEACAM1; biotinylated soluble CEACAM1
T3 sequence: T1 sequence
Method in brief: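 Humanized affinity-matured IgGs from crude supernatants captured on Protein A to ~100 RU, with CEACAM1 analyte injected at 25–100 nM (three-point, two-fold) in HBS-P+ without regeneration. 200 s association per injection, 300 s single dissociation; reference-channel and blank subtracted.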

[6] = target: T3, CEACAM1 (Sino Biological); assay: SPR multi-cycle, IgG on Protein A
Experimental: Multi-cycle kinetics analysis was performed on the twelve lead antibodies using a Biacore T200 instrument running Biacore T200 Evaluation Software V3.0.1 (Uppsala, Sweden) to establish an accurate affinity for CEACAM1. The purified antibodies were diluted to a concentration of […] in HBS-P+. At the start of each cycle, each antibody was captured on the Protein A surface to give an RL of ˜100 RU. Following capture, the surface was allowed to stabilize. Kinetic data was obtained using a flow rate of […] to minimize any potential mass transfer effects. For the kinetics analysis, CEACAM1 was used. Multiple repeats of the blank ([…]) and a repeat of a single concentration of the analyte were programmed into the kinetic run in order to check the stability of both the surface and analyte over the kinetic cycles. For kinetic analysis, a two-fold dilution range was selected from 200 to 3.125 nM CEACAM1. The association phase of CEACAM1 was monitored for 275 seconds and the dissociation phase was measured for 250 seconds. Regeneration of the Protein A surface was conducted using two injections of 10 mM glycine-HCL pH 1.5 at the end of each cycle.
The signal from the reference channel Fc1 was subtracted from that of Fc2, Fc3 and Fc4 to correct for differences in non-specific binding to a reference surface, and a global Rmax parameter was used in the 1-to-1 binding model. The relative KD was calculated by dividing the KD of the RSB02 Parent by that of the humanized and affinity matured variants on the same chip.

[7] = target: T4, CEACAM3 (Sino Biological) (human, UniProt P40198 35-155, limits assumed); assay: binding ELISA on plate-coated CEACAM (0.5 µg/mL); antibody at 1.67, 0.062 and 0.0069 µg/mL; signal as % of parent IgG on CEACAM1 at 1.67 µg/mL on the same plate
T4 construct: also called hCEACAM3
T4 sequence (looked up): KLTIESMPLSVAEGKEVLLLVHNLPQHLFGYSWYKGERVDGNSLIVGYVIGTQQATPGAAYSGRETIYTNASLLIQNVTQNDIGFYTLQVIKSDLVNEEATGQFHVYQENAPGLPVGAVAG

average relative KD to chimeric parental antibody [1]: 1.45 ratio | relative KD to chimeric parental antibody expt 1 [1]: 1.5 ratio | relative KD to chimeric parental antibody expt 2 [1]: 1.4 ratio | Kd [2]: 38.1 nM | koff [2]: 0.00384 s⁻¹ | kon [2]: 101000 M⁻¹ s⁻¹ | relative KD to chimeric parental antibody [2]: 1.4 ratio | Kd [3]: 93.4 nM | relative KD to chimeric parental antibody [3]: 2.2 ratio | average relative IC50 (normalized to chimeric antibody) [4]: 1.5 ratio
B1: VH1/Vκ1 (antibody, V domains shown)
VH: EVQLLESGGGLVQPGGSLRLSCAASGFIFSSHGMSWVRQAPGKGLEWVATISSGGTYTYYPDSVKGRFTISRDNSKNTLYLQMNSLKAEDTAMYYCARHDFDYDAAWFAYWGQGTLVTVSS
VL: QIVLTQSPALLSLSPGERATMSCSANSSVSYMYWYRQKPGQAPKPWIYLTSNLASGVPARFSGSGSGTDYTLTISSLEAEDFATYYCQQWSSNPPTFGQGTKLEIK

average relative KD to chimeric parental antibody [1]: 1.27 ratio | relative KD to chimeric parental antibody expt 1 [1]: 1.29 ratio | relative KD to chimeric parental antibody expt 2 [1]: 1.25 ratio | Kd [2]: 27.8 nM | koff [2]: 0.00496 s⁻¹ | kon [2]: 179000 M⁻¹ s⁻¹ | relative KD to chimeric parental antibody [2]: 1.25 ratio | Kd [3]: 138 nM | relative KD to chimeric parental antibody [3]: 3.2 ratio | average relative IC50 (normalized to chimeric antibody) [4]: 1.6 ratio
B2: VH2/Vκ2 (antibody, V domains shown)
VH: B1 VH with K87R
VL: B1 VL with Q1E, L10T, M21L, S24R, R36Q, K44R, L53R, S55T, A79P

average relative KD to chimeric parental antibody [1]: 1.31 ratio | relative KD to chimeric parental antibody expt 1 [1]: 1.39 ratio | relative KD to chimeric parental antibody expt 2 [1]: 1.22 ratio | Kd [2]: 33.3 nM | koff [2]: 0.0052 s⁻¹ | kon [2]: 156000 M⁻¹ s⁻¹ | relative KD to chimeric parental antibody [2]: 1.22 ratio | Kd [3]: 180 nM | relative KD to chimeric parental antibody [3]: 4.2 ratio | average relative IC50 (normalized to chimeric antibody) [4]: 1.7 ratio
B3: VH2/Vκ1 (antibody, V domains shown)
VH: B1 VH with K87R
VL: B1 VL

average relative KD to chimeric parental antibody [1]: 1.46 ratio | relative KD to chimeric parental antibody expt 1 [1]: 1.66 ratio | relative KD to chimeric parental antibody expt 2 [1]: 1.27 ratio | Kd [2]: 28.3 nM | koff [2]: 0.00551 s⁻¹ | kon [2]: 195000 M⁻¹ s⁻¹ | relative KD to chimeric parental antibody [2]: 1.27 ratio | Kd [3]: 148 nM | relative KD to chimeric parental antibody [3]: 3.4 ratio | average relative IC50 (normalized to chimeric antibody) [4]: 1.3 ratio
B4: VH1/Vκ2 (antibody, V domains shown)
VH: B1 VH
VL: B1 VL with Q1E, L10T, M21L, S24R, R36Q, K44R, L53R, S55T, A79P

Kd [3]: 56.1 nM | relative KD to chimeric parental antibody [3]: 1.3 ratio | average relative IC50 (normalized to chimeric antibody) [4]: 2.5 ratio
B5: VH0/Vκ1 (antibody, V domains shown)
VH: B1 VH with L5V, G10D, Q13K, R19K, S21A, A40T, G42D, G44R, S75D, A88S
VL: B1 VL

Kd [5]: 78 nM | fold better than Parent (KD) [5]: 2.03 fold | Kd [6]: 13.5 nM | koff [6]: 0.00409 s⁻¹ | kon [6]: 302000 M⁻¹ s⁻¹ | relative KD to Parent [6]: 6.31 ratio | binding result [7]: no binding (tested: 1.67 µg/mL)
B6: He17/L1 (antibody, IgG4, V domains shown)
VH: EVQLLESGGGLVQPGGSLRLSCAASGFSFSDYYLYWVRQAPGKGLEWVATISVGGGQTSYADSVKGRFTISRDNSKNTLYLQMNSLRAEDTAMYYCTRARTYGPAWFAYWGQGTLVTVSS
VL: DIVMTQSPDSLAVSLGERATINCKSSQSLLNSANQKNYLAWYQQKPGQPPKLLIYFASTRESGVPDRFSGSGSGTDFTLTISSLQAEDVAVYYCQSHYPFYYTFGGGTKVEIK
notes: IgG4 S241P, kappa; also called 17 / 1; H17/L1

Kd [3]: 76.6 nM | relative KD to chimeric parental antibody [3]: 1.8 ratio | average relative IC50 (normalized to chimeric antibody) [4]: 1 ratio
B7: VH1/Vκ0 (antibody, IgG4, V domains shown)
VH: B6 VH with Q57N, A61P, A99G, R100L, T101Y
VL: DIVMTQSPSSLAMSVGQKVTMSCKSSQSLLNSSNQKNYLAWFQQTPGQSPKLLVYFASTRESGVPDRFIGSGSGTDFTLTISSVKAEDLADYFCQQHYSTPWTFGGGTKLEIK
notes: IgG4 (S241P), kappa

Kd [3]: 77.8 nM | relative KD to chimeric parental antibody [3]: 1.8 ratio | average relative IC50 (normalized to chimeric antibody) [4]: 7.2 ratio
B8: VH2/Vκ4 (antibody, IgG4, V domains shown)
VH: B6 VH with Q57N, A99G, R100L, T101Y
VL: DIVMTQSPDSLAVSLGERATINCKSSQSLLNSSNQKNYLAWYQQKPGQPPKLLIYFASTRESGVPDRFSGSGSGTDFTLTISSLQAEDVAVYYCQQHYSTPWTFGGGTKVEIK
notes: IgG4 (S241P), kappa
